From patent US20100272685A1

Legend:
[1] = biological target: AAV2/5 vector particle (AAV5 capsid proteins VP1, VP2, VP3) (adeno-associated virus 5); assay: cell-based or functional assay
[2] = biological target: AAV2/po1 hybrid vector particle (AAVpo1 capsid of VP1, VP2, VP3) (porcine adeno-associated virus AAVpo1); assay: cell-based or functional assay

Substance: Pooled Human Ig (Immune Globulin Intravenous (Human) Carimune NF)
- concentration of the pooled Human Ig required to neutralise >50% of AAV-LacZ particles [1]: 7.5e-05 mg/mL
- concentration of the pooled Human Ig required to neutralise >50% of AAV-LacZ particles [2]: > 12 mg/mL
